Measured values as given in PMC10491584, “Structural convergence endows nuclear transport receptor Kap114p with a transcriptional repressor function toward TATA-binding protein” (Nature Communications, 2023).
Where “and” joins values, the source holds several entries; their conditions need not be identical. Equal entries are not always repeated.

T1: Kap114p wild type (S. cerevisiae, UniProt P53067 1-1004)
T1 construct: Kap114p (karyopherin-β), S. cerevisiae, full length, amplified from total genomic DNA; GST tag followed by a PreScission site (modified pGEX6p1); PreScission protease added during dialysis; also called Kap114p WT; GST-Kap114p (plasmid pGEX-6P-1-Kap114); source: E. coli Rosetta, purified (GST resin, MonoQ, Superdex 200)
T1 sequence (looked up): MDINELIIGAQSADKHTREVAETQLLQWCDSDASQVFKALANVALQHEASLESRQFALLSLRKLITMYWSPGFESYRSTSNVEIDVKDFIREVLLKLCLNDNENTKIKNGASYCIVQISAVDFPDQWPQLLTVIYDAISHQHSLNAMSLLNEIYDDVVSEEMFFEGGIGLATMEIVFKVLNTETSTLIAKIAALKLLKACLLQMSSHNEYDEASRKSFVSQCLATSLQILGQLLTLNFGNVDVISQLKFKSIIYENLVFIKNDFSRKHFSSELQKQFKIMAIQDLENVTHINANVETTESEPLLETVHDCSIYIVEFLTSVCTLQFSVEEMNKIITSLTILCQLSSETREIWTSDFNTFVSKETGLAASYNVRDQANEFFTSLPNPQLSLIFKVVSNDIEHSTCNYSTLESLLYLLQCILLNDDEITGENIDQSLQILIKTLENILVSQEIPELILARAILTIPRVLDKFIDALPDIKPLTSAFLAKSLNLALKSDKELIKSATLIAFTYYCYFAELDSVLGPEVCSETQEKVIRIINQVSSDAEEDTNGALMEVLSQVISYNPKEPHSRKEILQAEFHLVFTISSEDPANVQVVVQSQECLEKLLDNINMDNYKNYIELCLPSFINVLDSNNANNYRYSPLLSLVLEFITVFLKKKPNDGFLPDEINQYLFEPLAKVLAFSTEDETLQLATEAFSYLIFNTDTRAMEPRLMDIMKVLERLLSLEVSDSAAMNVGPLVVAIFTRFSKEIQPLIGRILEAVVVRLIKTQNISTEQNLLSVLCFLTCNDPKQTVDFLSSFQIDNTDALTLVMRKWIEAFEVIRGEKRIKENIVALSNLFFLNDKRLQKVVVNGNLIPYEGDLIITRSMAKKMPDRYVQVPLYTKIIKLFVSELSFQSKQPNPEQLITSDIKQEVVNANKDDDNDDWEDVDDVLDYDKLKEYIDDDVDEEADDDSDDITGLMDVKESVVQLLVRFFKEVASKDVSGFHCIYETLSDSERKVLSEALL

T2: Kap114pΔ(848-875) (S. cerevisiae, UniProt P53067 1-1004, Δ(848-875))
T2 construct: also called Kap114p(D848-875); source: E. coli (Rosetta strain), purified (GST resin, MonoQ, Superdex 200)
T2 sequence (looked up): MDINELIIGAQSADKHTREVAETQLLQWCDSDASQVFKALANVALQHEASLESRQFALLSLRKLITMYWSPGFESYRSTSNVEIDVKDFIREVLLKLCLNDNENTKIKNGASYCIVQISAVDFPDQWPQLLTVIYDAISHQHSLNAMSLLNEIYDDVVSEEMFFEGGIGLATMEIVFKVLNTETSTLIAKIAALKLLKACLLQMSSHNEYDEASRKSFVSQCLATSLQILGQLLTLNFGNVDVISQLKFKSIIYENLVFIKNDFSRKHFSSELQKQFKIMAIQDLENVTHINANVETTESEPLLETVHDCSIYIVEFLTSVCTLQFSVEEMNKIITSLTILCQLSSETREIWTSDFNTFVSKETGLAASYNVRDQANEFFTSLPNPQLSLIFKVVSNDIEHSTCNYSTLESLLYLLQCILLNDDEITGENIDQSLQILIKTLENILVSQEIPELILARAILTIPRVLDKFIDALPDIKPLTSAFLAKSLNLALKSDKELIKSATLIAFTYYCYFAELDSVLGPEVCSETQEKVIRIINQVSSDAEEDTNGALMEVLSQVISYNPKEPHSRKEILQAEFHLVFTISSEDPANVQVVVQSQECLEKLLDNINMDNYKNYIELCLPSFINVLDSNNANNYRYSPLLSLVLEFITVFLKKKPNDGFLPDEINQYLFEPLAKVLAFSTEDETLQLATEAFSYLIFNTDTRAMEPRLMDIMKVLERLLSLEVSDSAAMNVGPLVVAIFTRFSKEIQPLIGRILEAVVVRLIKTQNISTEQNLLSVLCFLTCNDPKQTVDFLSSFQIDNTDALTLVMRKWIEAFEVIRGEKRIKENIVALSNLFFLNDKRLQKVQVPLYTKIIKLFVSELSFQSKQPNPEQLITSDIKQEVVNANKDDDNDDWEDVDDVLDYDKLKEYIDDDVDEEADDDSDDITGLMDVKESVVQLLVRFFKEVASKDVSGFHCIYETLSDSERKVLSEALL


How the values were obtained:
[1] = biological target: T1, Kap114p wild type; test: ITC; MicroCal iTC200, 25 °C, 20 mM HEPES pH 7.4, 150 mM NaCl; low concentration: 25 µM wild type or mutant Kap114p in the sample cell, 250 µM wild type or mutant yTBPC in the syringe; triplicate; conditions: both partners purified
[2] = biological target: T2, Kap114pΔ(848-875); test: ITC; Kap114p (wild type or mutant) 50 uM in the sample cell, partner 500 uM in the syringe; 25 °C; 20 mM HEPES pH 7.4, 150 mM NaCl; triplicate; conditions: both partners purified

Kd [1] [nM] | Ka [2] | Kd [2] [nM] | Binder
1.4 | – | – | yTBP^C wild type (core domain of yeast TATA-box binding protein, a.a. 61-240) (domain or fragment, S. cerevisiae, UniProt P13393 61-240, looked up, modified pET28a, 6xHis tag followed by a PreScission site; also called yTBPC WT; His-yTBP (61-240); source: E. coli Rosetta, purified (Ni-NTA, HiTrap SP, Superdex 75); not shown: His6, N-terminal, cleaved) SGIVPTLQNIVATVTLGCRLDLKTVALHARNAEYNPKRFAAVIMRIREPKTTALIFASGKMVVTGAKSEDDSKLASRKYARIIQKIGFAAKFTDFKIQNIVGSCDVKFPIRLEGLAFSHGTFSSYEPELFPGLIYRMVKPKIVLLIFVSGKIVLTGAKQREEIYQAFEAIYPVLSEFRKM
– | 4.16e+08 M⁻¹ and 7.85e+08 M⁻¹ and 6.96e+08 M⁻¹ | 1.7 | core domain of yTBP (a.a. 61-240) (domain or fragment, S. cerevisiae, UniProt P13393 61-240, looked up, 61-240; also called yTBP^C; yTBPc; source: E. coli (Rosetta strain), purified (Ni-NTA, HiTrap SP, Superdex 75); not shown: 6xHis, N-terminal, cleaved) SGIVPTLQNIVATVTLGCRLDLKTVALHARNAEYNPKRFAAVIMRIREPKTTALIFASGKMVVTGAKSEDDSKLASRKYARIIQKIGFAAKFTDFKIQNIVGSCDVKFPIRLEGLAFSHGTFSSYEPELFPGLIYRMVKPKIVLLIFVSGKIVLTGAKQREEIYQAFEAIYPVLSEFRKM
